Test system: patients with metastatic breast cancer
Test: Phase 1 dose-escalation study, safety and tolerability of weekly LV (Day 1, 8, 15 of 3-week cycle)
Format: in vivo, human
Excerpt: This is a phase 1, open label, dose escalation study to evaluate the safety and tolerability of ladiratuzumab vedotin (LV) in patients with metastatic breast cancer.
Eligible patients are females at least 18 years of age who have incurable, unresectable, locally advanced or metastatic breast cancer (LA/mBC). Patients must have pathologically and radiologically confirmed hormone receptor-positive/human epidermal growth factor 2 negative (HR+/HER2−) or metastatic triple-negative breast cancer (mTNBC) with at least 1 measurable lesion per RECIST v1.1. Subjects with HR+/HER2− disease must have received no more than 1 prior line of cytotoxic chemotherapy in the locally advanced (LA)/mBC setting, either as single agent or combination therapy. Subjects with TNBC must have received 1 prior line of cytotoxic chemotherapy in the LA/mBC setting. Progression within 6 months of completion of neoadjuvant therapy is considered an LA/mBC regimen. Enrollment is open to all patients, irrespective of their LIV-1 expression level. Available and adequate archival baseline tumor sample is required. A fresh biopsy sample may be submitted in place of an archival sample if medically feasible.
Up to […] will be enrolled (42 HR+/HER2− and 42 mTNBC) into dose escalation and dose-expansion cohorts. Patients will receive LV on Day 1, Day 8, and Day 15 in every 3-week cycle. The study will have dose escalation and expansions cohorts. Patients with HR+/HER2− and TN disease will be enrolled into separate dose-expansion cohorts for each dose level.
Dose escalation will be conducted using the modified toxicity probability interval (mTPI) method according to Ji Y. et al. Clin Trials 7(6):653-63 (2010). Only 1 dose-escalation cohort will be open at a time. Dose-expansion cohorts may be opened at any dose level that has cleared dose-limiting toxicity (DLT) evaluation. Initially, up to approximately 10 patients will be enrolled at each dose level. DLT evaluation will only include data from the dose-escalation cohorts, but the totality of data from all patients at each dose level will be used to determine the recommended weekly LV dose.
LV will be administered at a dose of 0.75 mg/kg to 1.75 mg/kg by intravenous infusion over the course of 30 minutes on Day 1, Day 8, and Day 15 in every 3-week cycle.
The DLT evaluation period is the first treatment cycle (3 weeks). A DLT will be defined as any AE≥Grade 3, according to the NCI CTCAE v4.03, that is possibly, probably, or definitely related to treatment with LV, unless evidence exists that the AE has an etiology other than the investigational agent (e.g., disease progression, pre-existing medical condition, underlying disease, intercurrent illness, or concomitant medication), and/or the event has no plausible temporal relationship to administration of the investigational agent.
Patients were enrolled in the study described in Example 19. Patients had either first or second line endocrine refractory HR+/HER2− metastatic breast cancer or second line metastatic triple negative breast cancer (TNBC). LV was administered at a dose of 1.0 mg/kg, 1.25 mg/kg, or 1.5 mg/kg by intravenous infusion over the course of 30 minutes on Day 1, Day 8, and Day 15 in every 3-week cycle as described in Example 19.

ladiratuzumab vedotin [LV]
Grade 5 ischemic colitis, subjects (1 mg/kg LV, unrelated to treatment): *Grade 5 ischemic colitis was observed in 1 subject treated with 1 mg/kg LV. This was unrelated to treatment.
Grade 3 or higher TEAE: Any Adverse Event (1.0 mg/kg Q1W, n = 20): 12 (60%) n (%)
Grade 3 or higher TEAE: Diarrhoea (1.0 mg/kg Q1W, n = 20): 1 (5%) n (%)
Grade 3 or higher TEAE: Fatigue (1.0 mg/kg Q1W, n = 20): 4 (20%) n (%)
Grade 3 or higher TEAE: Hyperglycemia (1.0 mg/kg Q1W, n = 20): 3 (15%) n (%)
Grade 3 or higher TEAE: Hypophosphataemia (1.0 mg/kg Q1W, n = 20): 1 (5%) n (%)
Grade 3 or higher TEAE: Myalgia (1.0 mg/kg Q1W, n = 20): 0 n (%)
Grade 3 or higher TEAE: Nausea (1.0 mg/kg Q1W, n = 20): 1 (5%) n (%)
Grade 3 or higher TEAE: Neutropenia (1.0 mg/kg Q1W, n = 20): 2 (10%) n (%)
Grade 3 or higher TEAE: Neutrophil count decreased (1.0 mg/kg Q1W, n = 20): 1 (5%) n (%)
Grade 3 or higher TEAE: Peripheral Sensory Neuropathy (1.0 mg/kg Q1W, n = 20): 3 (15%) n (%)
SAE: Anaemia (1.0 mg/kg Q1W, n = 20): 1 (5%) n (%)
SAE: Any Adverse Event (1.0 mg/kg Q1W, n = 20): 5 (25%) n (%)
SAE: Colitis (1.0 mg/kg Q1W, n = 20): 1 (5%) n (%)
SAE: Dehydration (1.0 mg/kg Q1W, n = 20): 1 (5%) n (%)
SAE: Diabetic ketoacidosis (1.0 mg/kg Q1W, n = 20): 1 (5%) n (%)
SAE: Dyspnoea (1.0 mg/kg Q1W, n = 20): 2 (10%) n (%)
SAE: Embolism (1.0 mg/kg Q1W, n = 20): 1 (5%) n (%)
SAE: Fatigue (1.0 mg/kg Q1W, n = 20): 1 (5%) n (%)
SAE: Febrile neutropenia (1.0 mg/kg Q1W, n = 20): 1 (5%) n (%)
SAE: Hyperglycaemia (1.0 mg/kg Q1W, n = 20): 1 (5%) n (%)
SAE: Pneumonia (1.0 mg/kg Q1W, n = 20): 0 n (%)
Grade 3 or higher TEAE: Any Adverse Event (1.25 mg/kg Q1W, n = 18): 14 (78%) n (%)
Grade 3 or higher TEAE: Diarrhoea (1.25 mg/kg Q1W, n = 18): 1 (6%) n (%)
Grade 3 or higher TEAE: Fatigue (1.25 mg/kg Q1W, n = 18): 2 (11%) n (%)
Grade 3 or higher TEAE: Hyperglycemia (1.25 mg/kg Q1W, n = 18): 1 (6%) n (%)
Grade 3 or higher TEAE: Hypophosphataemia (1.25 mg/kg Q1W, n = 18): 2 (11%) n (%)
Grade 3 or higher TEAE: Myalgia (1.25 mg/kg Q1W, n = 18): 1 (6%) n (%)
Grade 3 or higher TEAE: Nausea (1.25 mg/kg Q1W, n = 18): 1 (6%) n (%)
Grade 3 or higher TEAE: Neutropenia (1.25 mg/kg Q1W, n = 18): 4 (22%) n (%)
Grade 3 or higher TEAE: Neutrophil count decreased (1.25 mg/kg Q1W, n = 18): 1 (6%) n (%)
Grade 3 or higher TEAE: Peripheral Sensory Neuropathy (1.25 mg/kg Q1W, n = 18): 6 (33%) n (%)
SAE: Anaemia (1.25 mg/kg Q1W, n = 18): 0 n (%)
SAE: Any Adverse Event (1.25 mg/kg Q1W, n = 18): 5 (28%) n (%)
SAE: Colitis (1.25 mg/kg Q1W, n = 18): 0 n (%)
SAE: Dehydration (1.25 mg/kg Q1W, n = 18): 0 n (%)
SAE: Diabetic ketoacidosis (1.25 mg/kg Q1W, n = 18): 0 n (%)
SAE: Dyspnoea (1.25 mg/kg Q1W, n = 18): 1 (6%) n (%)
SAE: Embolism (1.25 mg/kg Q1W, n = 18): 0 n (%)
SAE: Fatigue (1.25 mg/kg Q1W, n = 18): 0 n (%)
SAE: Febrile neutropenia (1.25 mg/kg Q1W, n = 18): 0 n (%)
SAE: Hyperglycaemia (1.25 mg/kg Q1W, n = 18): 1 (6%) n (%)
SAE: Pneumonia (1.25 mg/kg Q1W, n = 18): 2 (11%) n (%)
Grade 3 or higher TEAE: Any Adverse Event (1.5 mg/kg Q1W, n = 2): 2 (100%) n (%)
Grade 3 or higher TEAE: Myalgia (1.5 mg/kg Q1W, n = 2): 1 (50%) n (%)
Grade 3 or higher TEAE: Neutropenia (1.5 mg/kg Q1W, n = 2): 1 (50%) n (%)
SAE: Anaemia (1.5 mg/kg Q1W, n = 2): 0 n (%)
SAE: Any Adverse Event (1.5 mg/kg Q1W, n = 2): 1 (50%) n (%)
SAE: Colitis (1.5 mg/kg Q1W, n = 2): 0 n (%)
SAE: Dehydration (1.5 mg/kg Q1W, n = 2): 0 n (%)
SAE: Diabetic ketoacidosis (1.5 mg/kg Q1W, n = 2): 0 n (%)
SAE: Dyspnoea (1.5 mg/kg Q1W, n = 2): 0 n (%)
SAE: Embolism (1.5 mg/kg Q1W, n = 2): 0 n (%)
SAE: Fatigue (1.5 mg/kg Q1W, n = 2): 0 n (%)
SAE: Febrile neutropenia (1.5 mg/kg Q1W, n = 2): 0 n (%)
SAE: Hyperglycaemia (1.5 mg/kg Q1W, n = 2): 0 n (%)
SAE: Pneumonia (1.5 mg/kg Q1W, n = 2): 0 n (%)
incidence of a variety of adverse events, Q1W vs Q3W (3.0-4.5 mg/kg per 3 weeks on Q1W vs. 2.5 mg/kg on Q3W): lower incidence
dose limiting toxicities (Dose level 0 (1 mg/kg Q1W), +1 (1.25 mg/kg Q1W), +2 (1.5 mg/kg Q1W)): no dose limiting toxicities observed
Adverse event incidence: Abdominal Pain (Q1W, N = 40): 7 (18%)
Adverse event incidence: Alopecia (Q1W, N = 40): 10 (25%)
Adverse event incidence: Constipation (Q1W, N = 40): 10 (25%)
Adverse event incidence: Decreased Appetite (Q1W, N = 40): 11 (28%)
Adverse event incidence: Diarrhea (Q1W, N = 40): 11 (28%)
Adverse event incidence: Fatigue (Q1W, N = 40): 18 (45%)
Adverse event incidence: Hypokalemia (Q1W, N = 40): 4 (10%)
Adverse event incidence: Nausea (Q1W, N = 40): 14 (35%)
Adverse event incidence: Neutropenia (Q1W, N = 40): 10 (25%)
Adverse event incidence: Peripheral Sensory Neuropathy (Q1W, N = 40): 9 (23%)
Adverse event incidence: Vomiting (Q1W, N = 40): 8 (20%)
Grade 3 or higher TEAE: Any Adverse Event (Total, all Q1W doses, n = 40): 28 (70%) n (%)
Grade 3 or higher TEAE: Diarrhoea (Total, all Q1W doses, n = 40): 2 (5%) n (%)
Grade 3 or higher TEAE: Fatigue (Total, all Q1W doses, n = 40): 6 (15%) n (%)
Grade 3 or higher TEAE: Hyperglycemia (Total, all Q1W doses, n = 40): 4 (10%) n (%)
Grade 3 or higher TEAE: Hypophosphataemia (Total, all Q1W doses, n = 40): 3 (8%) n (%)
Grade 3 or higher TEAE: Myalgia (Total, all Q1W doses, n = 40): 2 (5%) n (%)
Grade 3 or higher TEAE: Nausea (Total, all Q1W doses, n = 40): 2 (5%) n (%)
Grade 3 or higher TEAE: Neutropenia (Total, all Q1W doses, n = 40): 7 (18%) n (%)
Grade 3 or higher TEAE: Neutrophil count decreased (Total, all Q1W doses, n = 40): 2 (5%) n (%)
Grade 3 or higher TEAE: Peripheral Sensory Neuropathy (Total, all Q1W doses, n = 40): 9 (23%) n (%)
SAE: Anaemia (Total, all Q1W doses, n = 40): 1 (3%) n (%)
SAE: Any Adverse Event (Total, all Q1W doses, n = 40): 11 (28%) n (%)
SAE: Colitis (Total, all Q1W doses, n = 40): 1 (3%) n (%)
SAE: Dehydration (Total, all Q1W doses, n = 40): 1 (3%) n (%)
SAE: Diabetic ketoacidosis (Total, all Q1W doses, n = 40): 1 (3%) n (%)
SAE: Dyspnoea (Total, all Q1W doses, n = 40): 3 (8%) n (%)
SAE: Embolism (Total, all Q1W doses, n = 40): 1 (3%) n (%)
SAE: Fatigue (Total, all Q1W doses, n = 40): 1 (3%) n (%)
SAE: Febrile neutropenia (Total, all Q1W doses, n = 40): 1 (3%) n (%)
SAE: Hyperglycaemia (Total, all Q1W doses, n = 40): 2 (5%) n (%)
SAE: Pneumonia (Total, all Q1W doses, n = 40): 2 (5.%) n (%)
